Experiments:
[1] = biological target: T1, Hsc70 (Homo sapiens, UniProt P11142); test: Competition binding vs FITC-p5 by fluorescence anisotropy; details: Hsc70 5 μM, FITC-p5 50 nM, competitor 0 to 200 μM, phosphate buffer pH 7.4, overnight 4 °C, fluorescence anisotropy 485/516 nm, three independent experiments
T1 construct: 6X His-tag (TEV-cleavable) (cleaved yes); made in house; host or cells: E. coli Rosetta (DE3)
Description: Figure 3 Hsc70 forms complexes with SNAP-25.A, native PAGE of SNAP-25 (10 μM) in the presence and absence of Hsc70 (2 μM). The difference in signal intensity of His-SNAP25 probed with antibody is likely due to altered epitope exposure upon formation of the SNAP-25-Hsc70 complex. B, binding of SNAP-25 (black), SNAP-25 SNN (SNNFR, orange), and SNC (SNCFR, green)) fragments to Hsc70 by competition followed by fluorescence anisotropy. Increasing concentrations of the competitors were added to a complex of Hsc70 (5 μM) and FITC-p5 peptide (50 nM). Error bars represent SDs from three independent experiments.
To pin down the regions in SNAP-25 where Hsc70 binds we expressed the individual SNN and SNC fragments of SNAP-25 and tested their ability to compete for Hsc70 binding to an FITC-labeled p5 peptide (ALLLSAPRR).
Figure 5 SNN and SNC peptides interact with the canonical substrate-binding site of Hsc70.A, ATPase activity of Hsc70 (2 μM) in the absence (gray) and presence of 200 μM SNNP (orange) and SNCP (green) peptides. Error bars represent the SDs from three independent experiments. B, binding of SNAP-25 (black), SNNP (orange), LoopP (blue), and SNCP (green) peptides to Hsc70 followed by competition for FITC-p5 peptide using fluorescence anisotropy. Increasing concentrations of the competitors were added to a complex of Hsc70 (5 μM) and FITC-p5 peptide (50 nM). Error bars represent SDs from three independent experiments. C, structure of the canonical substrate-binding site of human HspA1 (PDB 4po2) illustrating the location of Hsc70 residues Ile 403 and Ile 440 in red and green spheres, respectively (N.B., Hsc70 and HspA1 share […] sequence identity). The SBD is shown in gray, bound substrate in cyan sticks, and the side chain of the residue occupying the 0th position in the chaperone (“anchor residue”) in orange ball and sticks. For better visualization of the substrate-binding site, residues 512 to 613, 405 to 408, and 431 were removed in this illustration of the structure. D, the Ile region of the ^1H-^13 C HMQC spectra of Ile-^13CH3-labeled Hsc70 (40 μM) in the absence (black) and in the presence of unlabeled SNNP (orange) and SNCP (green) peptides (200 μM).
To further characterize the binding of the SNAP-25 peptides to Hsc70 we used competition assays as above. Peptides SNNP, LOOPP, and SNCP were titrated against the protein-peptide complex of Hsc70 and FITC-p5 and fluorescence anisotropy was monitored to assess how well the SNAP-25 peptides displaced the model peptide.
Direct binding between the p5 peptide (QSRLLLSAPRRAA) and Hsc70 was carried out as described previously ([52]). […] Fluorescence anisotropy was measured in a BioTek plate reader (BioTek) with excitation at 485 nm and emission at 516 nm.
The measured anisotropy values were converted to fraction bound (fb) using the equation: fb=(r−r0)/(rb−r0) where r is the anisotropy value at any point, r0 is the anisotropy value of FITC-p5 in the absence of Hsc70, and rb is the anisotropy value of FITC-p5 when fully bound to Hsc70. […]
For competition assays, the concentrations of Hsc70 and FITC-P5 were kept constant at 5 μM and 50 nM, respectively, and the competitor substrate was titrated from 0 to 200 μM in phosphate buffer. […] Fluorescent anisotropy was measured as described above. […]

[2] = system: SNARE complex with syntaxin and synaptobrevin; test: SDS-resistant SNARE complex formation (SDS-PAGE); assay type: biochemical; details: with Hsc70, mixed with syntaxin and synaptobrevin, 1 M NaCl, 4 °C
Description: We took aliquots of SNAP-25 at different time points of the aggregation reaction (at 0 h, in lag phase and at 64 h in the log or saturation phase, Fig. 2A) and mixed them with the SNARE motifs of syntaxin and synaptobrevin to allow the formation of the SNARE complex.
Figure 6 Hsc70 facilitates incorporation of SNAP-25 into the SNARE complex in vitro. SDS-PAGE of SNAP-25 taken from the aggregation reactions (Fig. 2) at 0 h and 64 h after the initiation, without (left) and with Hsc70 (right), and mixed with syntaxin and synaptobrevin for the time indicated below each SDS-PAGE. SNAP-25 is expressed and purified from E. coli; a minor amount of the bacterial Hsp70 homolog DnaK (∼70 kDa) may copurify with SNAP-25, explaining the presence of higher molecular weight bands, with its proteolysis potentially occurring during ∼64-h SNAP-25 aggregation reactions. For synaptobrevin, we attribute the higher molecular weight bands to incomplete cleavage of GST-tagged synaptobrevin.
The SNARE motifs were mixed in an equimolar ratio in the following order: synaptobrevin-2 (29–93), syntaxin-1A (191–253), and SNAP-25 taken from the aggregation reaction, in the presence of 1 M NaCl. The assembly reaction was incubated at 4 °C overnight while rotating. The SNARE motifs were concentrated using a 30-kDa molecular weight cutoff Amicon centrifugation filters and run on 4 to 20% gradient SDS-PAGE.

[3] = system: SNAP-25; test: SNAP-25 aggregation kinetics by optical density; assay type: biochemical; details: SNAP-25 50 μM, Hsc70 5 μM, 37 °C, shaking 300 rpm, OD 360 nm, 20 mM phosphate buffer pH 7.4, 100 μM MgCl2, 100 mM KCl
Description: (§1) To test our hypothesis that Hsc70 inhibits SNAP-25 aggregation, we monitored the aggregation kinetics of recombinantly expressed SNAP-25 in the absence and presence of Hsc70 by following optical density at 360 nm (Fig. 2). […] This lag time was elongated to ∼65 h in the presence of Hsc70. In neurons, Hsc70 works in collaboration with its co-chaperone CSPα. […] (Fig. S2A). Apg2 is a member of the Hsp110 family, which is known to suppress protein aggregation ([36]). […] (Fig. S2B).
(§2) Figure 2 Hsc70 delays the aggregation of SNAP-25. Aggregation kinetics of SNAP-25 (50 μM) at 37 °C. Optical density of SNAP-25 was recorded at 360 nm in the absence (black) and in the presence of Hsc70 (5 μM, red), and Hsc70+CSPαJ (5 μM each, blue).
(§3) Aggregation of SNAP-25 at 50 μM was followed by measuring the A360 in a 96-well plate using a BioTek plate reader (BioTek), at 37 °C with shaking at 300 rpm, in the absence and presence of Hsc70 and CSPαJ at 5 μM each, and Apg2 at 0.5 μM. The aggregation buffer included 20 mM phosphate buffer pH 7.4, 100 μM MgCl2, and 100 mM KCl, and an ATP-experiment was carried out using regeneration system (5 mM 2-phosphoenolpyruvate, 0.05 mg/ml pyruvate kinase, and 5 mM ATP), as described previously ([51]).
(§4) Figure SI 2. Apg2 enhances the effect of Hsc70 on SNAP-25. (A) Aggregation kinetics of SNAP-25 (50 μM) at 37 °C. OD600 of SNAP-25 was recorded in the absence (black) and in the presence of Hsc70, Hsc70+CSPa-J (blue) and Hsc70+CSPa-J+Apg2 (turquoise). […]
(§5) concentrations are SNAP-25 (50 μM), Hsc70 (5 μM), CSPa-J (5 μM) and Apg2 (0.5 μM).
(§6) (B) Aggregation kinetics of SNAP-25 (50 μM) at 37 °C. OD600 of SNAP-25 was recorded in the absence (black) and in the presence of Apg2 (blue). […]

[4] = SNAP-25 aggregation kinetics by optical density; assay type: biochemical; details: without SNAP-25, 37 °C
Description: as §1, §2, §3, §4, §5, §6

[5] = system: SNAP-25; test: Far-UV CD; assay type: physicochemical; details: far-UV CD 200–250 nm, 22 °C (Fig. S1)
Description: SNAP-25 has four native cysteines that are palmitoylated upon interaction with the membrane. […] For all of our studies, the SNAP-25 CS mutant was used unless otherwise mentioned.
The far-UV CD spectra (200–250 nm) were recorded on a Jasco J-1500 Circular Dichroism Spectrophotometer at 22 °C. The SNAP-25 WT, SNAP-25, and mixture of SNAP-25 and Hsc70 were taken in a 1 mm path length quartz cuvette. Figures show the average of ten scans where the buffer baselines were subtracted. Data were plotted using software using the Origin (Pro) program (OriginLab Corp).

[6] = biological target: T1, Hsc70; test: ATPase activity of Hsc70 (malachite green); assay type: biochemical; details: no peptide; "usually about"
From the text: Hsp70s consist of an nucleotide-binding domain (NBD) and a substrate-binding domain (SBD). Hsc70 works using an allosteric mechanism whereby substrate binding at the SBD stimulates the ATP hydrolysis rate at the nucleotide-binding domain. The basal ATPase rate of Hsp70 is low, usually about 0.05 ± 0.009 mol Pi/mol protein, and increases when it is stimulated by binding of a peptide to the canonical site in the SBD. We measured the ability of SNAP-25 peptides SNNP and SNCP to stimulate the ATPase rate of Hsc70 (Fig. 5A). SNNP and SNCP binding cause a 1.5-fold increase of the Hsc70 ATPase rate over basal (observed rates upon addition of SNNP and SNCP were 0.089 ± 0.008 and 0.080 ± 0.005, respectively). In order to confirm that peptides are indeed binding at the canonical binding site of Hsc70, we used the V438F mutant that blocks the binding site ([37]). […] The addition of CSPαJ stimulates the ATPase activity of Hsc70 ∼4-fold with and without peptides.
Figure 5 SNN and SNC peptides interact with the canonical substrate-binding site of Hsc70.A, ATPase activity of Hsc70 (2 μM) in the absence (gray) and presence of 200 μM SNNP (orange) and SNCP (green) peptides. Error bars represent the SDs from three independent experiments. B, binding of SNAP-25 (black), SNNP (orange), LoopP (blue), and SNCP (green) peptides to Hsc70 followed by competition for FITC-p5 peptide using fluorescence anisotropy. Increasing concentrations of the competitors were added to a complex of Hsc70 (5 μM) and FITC-p5 peptide (50 nM). Error bars represent SDs from three independent experiments. […]
We performed ATPase assays to observe the activity of Hsc70 in the presence of SNAP25 peptides. […] Absorbance readings were taken at 620 nm using a BioTek plate reader. […]
(C) ATPase activity of Hsc70 (at 2 μM) in the absence (grey) and presence of 200 μM SNNP (orange) and L(Loop)-SNCP (green) peptides, and in the absence and presence of CSPa-J and CSPa-J/Apg2. The statistical significance was calculated using one-way ANOVA test with Sidak’s multiple comparison and the Hsc70 ATPase activity […]

T1 sequence (P11142 whole entry): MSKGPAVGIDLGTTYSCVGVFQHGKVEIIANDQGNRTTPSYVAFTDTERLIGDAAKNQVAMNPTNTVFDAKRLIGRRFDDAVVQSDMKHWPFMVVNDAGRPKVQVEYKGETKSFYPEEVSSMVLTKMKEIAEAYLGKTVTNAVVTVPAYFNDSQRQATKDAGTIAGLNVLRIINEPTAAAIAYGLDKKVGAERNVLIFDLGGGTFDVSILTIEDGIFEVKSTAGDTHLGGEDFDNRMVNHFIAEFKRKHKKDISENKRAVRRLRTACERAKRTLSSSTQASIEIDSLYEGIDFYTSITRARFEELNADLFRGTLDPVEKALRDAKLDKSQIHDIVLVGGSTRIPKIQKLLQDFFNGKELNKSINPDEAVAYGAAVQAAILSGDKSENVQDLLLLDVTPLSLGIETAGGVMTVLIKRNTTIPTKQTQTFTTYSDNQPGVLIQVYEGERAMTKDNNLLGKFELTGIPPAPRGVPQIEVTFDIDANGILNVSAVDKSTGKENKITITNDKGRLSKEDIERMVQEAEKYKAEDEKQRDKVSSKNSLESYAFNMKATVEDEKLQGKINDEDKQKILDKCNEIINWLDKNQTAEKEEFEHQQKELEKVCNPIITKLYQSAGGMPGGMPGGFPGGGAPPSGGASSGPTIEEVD

SNN: SNAP-25 SNN fragment, SNNFR 11–82
competition with p5 peptide for binding to Hsc70 [1]: competed with p5 peptide for binding to Hsc70

SNC: SNAP-25 SNC fragment, SNCFR141–201
competition with p5 peptide for binding to Hsc70 [1]: competed with p5 peptide for binding to Hsc70

heat shock cognate 70 [Hsc70]
SNARE complex formation by SNAP-25 taken at 0 h and 64 h of aggregation in the presence of Hsc70 [2]: can productively form a SNARE complex | lag time of SNAP-25 aggregation in the presence of Hsc70 [3]: ~65 h | aggregation of the chaperone alone ([4]; OD 360 nm (Fig. 2)): no aggregation | aggregation of the chaperone alone ([4]; OD600 (Fig. S2A), Hsc70 5 μM, CSPa-J 5 μM, Apg2 0.5 μM): exhibit no aggregation | conformational change upon Hsc70-SNAP-25 interaction [5]: no significant conformational change

70-kDa heat shock protein [Hsp70]
basal ATPase rate [6]: about 0.05 ± 0.009 mol Pi/mol protein

— paper PMC11697113, “The Hsc70 system maintains the synaptic SNARE protein SNAP-25 in an assembly-competent state and delays its aggregation [drawing 1]” (The Journal of Biological Chemistry, 2024)
